The source of these data is publication PMC5859130, “Ixonnexin from Tick Saliva Promotes Fibrinolysis by Interacting with Plasminogen and Tissue-Type Plasminogen Activator, and Prevents Arterial Thrombosis” (Scientific Reports, 2018).

Data set [1] concerns the molecule itself. The data set is described as follows: SEC; Superdex 75 10/300, 20 mM Tris-HCl, 0.15 M NaCl, pH 8, 0.5 mL/min; column calibrated with salivary proteins of known mass. In general terms: Size exclusion chromatography separates by hydrodynamic size, large species first.
Data set [2] concerns the target T1, Lys-plasminogen (UniProt P00747 97-810).
T1 construct: source: bought: Enzyme Research Laboratories or Innovative Research
As to the kind of experiment: SPR; Ixonnexin amine-coupled to a carboxymethylated dextran (CM5) chip, 726.2 RU; analytes injected 120 s at 30 µL/min, 25 °C, dissociation 600 s; global fit with the two-state (conformational change) model, Langmuir 1:1 for plasmin. The conditions noted are these: both partners purified.

Data set [3] deals with Factor Xa. As to the kind of experiment: cell-based or functional assay.
Chain of Factor Xa (P00742 32-488): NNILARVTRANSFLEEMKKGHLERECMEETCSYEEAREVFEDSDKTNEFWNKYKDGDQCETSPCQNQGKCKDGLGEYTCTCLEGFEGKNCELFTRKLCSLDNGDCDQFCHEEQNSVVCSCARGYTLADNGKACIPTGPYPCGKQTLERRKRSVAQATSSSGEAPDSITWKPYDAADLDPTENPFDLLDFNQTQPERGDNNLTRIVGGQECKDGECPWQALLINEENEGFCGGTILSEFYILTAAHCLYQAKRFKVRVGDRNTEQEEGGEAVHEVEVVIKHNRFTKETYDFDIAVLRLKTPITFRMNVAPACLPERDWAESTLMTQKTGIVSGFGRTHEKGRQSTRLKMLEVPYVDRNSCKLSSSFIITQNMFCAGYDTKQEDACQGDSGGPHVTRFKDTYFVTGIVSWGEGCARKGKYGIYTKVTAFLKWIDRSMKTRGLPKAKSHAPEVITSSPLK

T1 sequence (P00747 97-810): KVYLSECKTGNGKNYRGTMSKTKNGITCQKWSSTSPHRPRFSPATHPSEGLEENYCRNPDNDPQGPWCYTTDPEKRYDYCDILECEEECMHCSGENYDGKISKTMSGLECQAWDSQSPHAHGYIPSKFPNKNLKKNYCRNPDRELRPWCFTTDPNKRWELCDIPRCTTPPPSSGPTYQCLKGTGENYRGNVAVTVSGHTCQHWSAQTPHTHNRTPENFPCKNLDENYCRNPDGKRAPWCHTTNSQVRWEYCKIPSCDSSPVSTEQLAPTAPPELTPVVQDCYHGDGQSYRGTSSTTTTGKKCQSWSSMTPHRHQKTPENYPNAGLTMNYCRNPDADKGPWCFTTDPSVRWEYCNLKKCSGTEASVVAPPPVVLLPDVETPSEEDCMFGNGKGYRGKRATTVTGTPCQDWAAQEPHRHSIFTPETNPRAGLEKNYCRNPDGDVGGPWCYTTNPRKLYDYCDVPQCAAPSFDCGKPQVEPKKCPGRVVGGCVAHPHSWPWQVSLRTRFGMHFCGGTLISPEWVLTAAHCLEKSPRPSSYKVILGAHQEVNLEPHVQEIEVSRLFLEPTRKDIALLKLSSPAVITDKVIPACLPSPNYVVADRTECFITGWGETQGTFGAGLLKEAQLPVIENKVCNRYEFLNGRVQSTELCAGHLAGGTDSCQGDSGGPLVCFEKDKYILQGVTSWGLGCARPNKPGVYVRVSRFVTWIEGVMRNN

B1: Ixonnexin (natural protein)
chain: HNCQNGTRPASEENREGCDYYCWNAETKSWDQFFFGNGERCFYNTGEKGTCLNGECHLTTSSGGPDDTGDNTPPPTEKPKQKKKKPKKTKKPKRKSKKDQKENF
notes: Ixonnexin, 'Basic-tail' family salivary protein of Ixodes scapularis (gi 67083505); the precursor has a signal peptide of 21 residues (cut between Ala21 and His22); the mature protein of 104 residues was synthesized; numbers count on: the mature protein; 3 disulfide bonds after folding; Gel filtration is consistent with a non-covalent dimer; mass spectrometry gave a single monomeric mass; also …
Turning to B1, the “stoichiometry N” value in data set [1] amounted to 2. The dissociation constant (Kd) in data set [2] is 14.4 nM. Besides, the “amidolytic activity of FXa (0.33 nM) on a fluorogenic substrate, enhanced by Ixonnexin: IC50” value in data set [3] was 9.73 nM.

As usually defined, the stoichiometry N is the number of molecules, sites or subunits per partner or assembly. Usually Kd stands for a measure of binding affinity in units of concentration. A low value points to a tighter complex.
